This passage reports Kd results from US20260241049A1, “Radiopharmaceutical Compositions Targeting Glypican-3 and Uses Thereof” (RayzeBio, Inc., priority 2023, published 2026).

Starred links: 1 amine or outer side, 2 acyl side, 3 side chain; linkers in the order of their positions; H or OH if unused. Positions of bridges follow the written chain, without caps; N, C: chain ends. Non-standard residues stand in square brackets, D forms with d. Primed or numbered codes have the meaning given here. *: point of attachment. DOTA‑Lu = DOTA-lutetium(175) amide on the side-chain amine, O=C([O-])CN1CCN(CC(=O)[O-])CCN(CC(=O)*)CCN(CC(=O)[O-])CC1.[175Lu+3]; MeHseMe(3) = N-methyl-O-methyl-homoserine, 4-methoxy-2-(methylamino)butanoic acid, COCC[C@@H](C(=O)[*:2])N(C)[*:1]; F4aao = 4-(carboxymethoxy)-L-phenylalanine, O=C([C@H](Cc1ccc(OCC(=O)[*:3])cc1)N[*:1])[*:2]; DOTA‑Lu″ = DOTA chelate of lutetium (175Lu), attached as an amide to the side-chain amine; MeHseMe = N-methyl-O-methyl-L-homoserine, COCC[C@@H](C(=O)[*:2])N(C)[*:1]; Thr(Me)(3) = TMe, O-methyl-L-threonine, CO[C@H](C)[C@H](N[*:1])C(=O)[*:2]; Phe(4-(1-Me-pyrazol-4-yl)) = Cn1cc(-c2ccc(C[C@H](N)C(=O)O)cc2)cn1; TMe = O-methyl-L-threonine, CO[C@H](C)[C@H](N[*:1])C(=O)[*:2]; NMeAla(isoquinolin-7-yl) = CN[C@@H](Cc1ccc2ccncc2c1)C(=O)O; Phe(4-CH2COOH) = N[C@@H](Cc1ccc(CC(=O)O)cc1)C(=O)O; 3Pal(6-Ph) = N[C@@H](Cc1ccc(-c2ccccc2)nc1)C(=O)O; Phe(4-COOH) = N[C@@H](Cc1ccc(C(=O)O)cc1)C(=O)O; NMe2Nal = CN[C@@H](Cc1ccc2ccccc2c1)C(=O)O; NMeI = CC[C@H](C)[C@H](NC)C(=O)O; NMeQ = CN[C@@H](CCC(N)=O)C(=O)O; NMeK = CN[C@@H](CCCCN)C(=O)O; NMeC = CN[C@@H](CS)C(=O)O; NMeA = CN[C@@H](C)C(=O)O

B1: Macrocyclic peptide of Example 2-23 (SEQ ID No. 43) (peptide)
peptide: {CH2CO}-[NMeA][NMeQ]D[NMeQ][Phe(4-COOH)]II[Phe(4-COOH)][NMe2Nal]G[3Pal(6-Ph)][NMeC]-NH2
modifications: thioether N-12
SMILES: CC[C@H](C)[C@@H]1NC(=O)[C@H](Cc2ccc(C(=O)O)cc2)NC(=O)[C@H](CCC(N)=O)N(C)C(=O)[C@H](CC(=O)O)NC(=O)[C@H](CCC(N)=O)N(C)C(=O)[C@H](C)N(C)C(=O)CSC[C@@H](C(N)=O)N(C)C(=O)[C@H](Cc2ccc(-c3ccccc3)nc2)NC(=O)CNC(=O)[C@H](Cc2ccc3ccccc3c2)N(C)C(=O)[C@H](Cc2ccc(C(=O)O)cc2)NC(=O)[C@H]([C@@H](C)CC)NC1=O
B2: Lu-C-31 (peptide)
peptide: Ac-[NMeK](DOTA‑Lu)[NMeI]D[NMeQ][Phe(4-COOH)][TMe]I[F4aao][NMeAla(isoquinolin-7-yl)]G[3Pal(6-Ph)][NMeC][dE]-NH2
modifications: bridge N-12; not fully specified (bridges); printed as MeK(DOTA-Lu)-MeI-D-MeQ-F4COO-TMe-I-F4aao-MeNal27N-G-3Py6Ph-MeC-de-NH2
B3: Macrocyclic peptide of Example 2-18 (SEQ ID No. 36) (peptide)
peptide: {CH2CO}-[NMeQ][MeHseMe]D[NMeQ][Phe(4-COOH)][Thr(Me)(3)]I[F4aao][NMeAla(isoquinolin-7-yl)]G[Phe(4-(1-Me-pyrazol-4-yl))][NMeC]-NH2
modifications: thioether N-12
SMILES: CC[C@H](C)[C@@H]1NC(=O)[C@H]([C@@H](C)OC)NC(=O)[C@H](Cc2ccc(C(=O)O)cc2)NC(=O)[C@H](CCC(N)=O)N(C)C(=O)[C@H](CC(=O)O)NC(=O)[C@H](CCOC)N(C)C(=O)[C@H](CCC(N)=O)N(C)C(=O)CSC[C@@H](C(N)=O)N(C)C(=O)[C@H](Cc2ccc(-c3cnn(C)c3)cc2)NC(=O)CNC(=O)[C@H](Cc2ccc3ccncc3c2)N(C)C(=O)[C@H](Cc2ccc(OCC(=O)O)cc2)NC1=O

In this test the target is T1, Human Glypican3-Fc (ACRO Biosystems, GP3-H5258) (human, UniProt P51654 25-559).
T1 construct: Bought fusion protein, captured in Methods B-2, B-3 and B-4; Catalogue number is printed only in Method B-2; not shown: Fc part of the bought fusion
Briefly: SPR (Biacore T200), Method B-2: human Glypican3-Fc captured by anti-human Fc on CM3 chip, peptide as analyte. How it is done: A CM3 sensor chip (Cytiva) was inserted into a Biacore T200 (Cytiva), primed three times with a running buffer: HBS-P-+, pH 7.4 (Cytiva), and equilibrated at a flow rate of 30 μL/min. Using the Anti-Fc Capture Kit (Cytiva), 50 LL each of 60 mM EDC solution (Cytiva) and 650 mM NHS solution (Cytiva) were mixed, and then reacted at a flow rate of 10 μL/min for 420 seconds, 150 μL of […] Anti-human IgG (Fc) Antibody solution was prepared by diluting with 10 mM acetic acid solution (pH 5.0), reacted at a flow rate of 10 μL/min for 420 seconds, and immobilized on a CM3 sensor chip. After immobilization, 1.0 M ethanolamine aqueous solution (Cytiva) was allowed to react for 420 seconds at a flow rate of 10 μL/min for capping. Human Glypican3-Fc (ACRO Biosystems, GP3-H5258) was allowed to react for 60 seconds at a flow rate of 10 μL/min. After capturing human Glypican3-Fc, a peptide solution prepared to 10 mM in DMSO solution was diluted with a running buffer to a final concentration of 10 μM. […] Using the above samples, peptide kinetics for Glypican3 was obtained by SPR measurement. Kinetics evaluation of Glypican3 was performed by SPR measurements at a flow rate of 10 μL/min. setting the association time to 120 seconds and the disassociation time to 600 seconds.
The obtained data by Method B-1, Method B-2, Method B-3 and Method B-4 were analyzed by follow. Single Cycle Kinetics was used as the kinetics evaluation model, and curve fitting was performed using Biacore T200 Evaluation Software Version 3.0 (Cytiva).
Background: Surface plasmon resonance follows binding to a sensor surface in real time, without labels.
For orientation: Kd means the constant that tells how readily two partners part at equilibrium. Lower therefore signals tighter binding. On to B1, for which the Kd came out at 1.5 nM.

Turning to B2, the dissociation constant Kd turned out to be 7.05 nM.

As to B3, the affinity, expressed as Kd, was 3.8 nM.

Turning to {CH2CO}-[NMeQ][NMeQ]D[NMeK](DOTA‑Lu″)[Phe(4-COOH)]II[Phe(4-CH2COOH)][NMe2Nal]G[Phe(4-(1-Me-pyrazol-4-yl))][NMeC]-NH2 (thioether N-12) [Lu-C-26], binding was put at a Kd of 2.52 nM.

{CH2CO}-[NMeK](DOTA‑Lu″)[MeHseMe(3)]D[NMeQ][Phe(4-COOH)]II[Phe(4-CH2COOH)][NMe2Nal]G[Phe(4-(1-Me-pyrazol-4-yl))][NMeC]-NH2 (thioether N-12) [Lu-C-22] gave a Kd of 1.99 nM.
